Source: article PMC4948871, “The Molecular Mechanism of Ethylene-Mediated Root Hair Development Induced by Phosphate Starvation”

T1: GST-EIN3(141-352) (Arabidopsis thaliana, UniProt O24606 141-352)
T1 sequence: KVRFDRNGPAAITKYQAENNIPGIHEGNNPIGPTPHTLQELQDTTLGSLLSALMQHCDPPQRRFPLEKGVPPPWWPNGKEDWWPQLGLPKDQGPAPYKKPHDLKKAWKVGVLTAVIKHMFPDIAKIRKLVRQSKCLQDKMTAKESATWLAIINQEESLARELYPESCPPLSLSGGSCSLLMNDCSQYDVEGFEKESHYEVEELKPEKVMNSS

B1: EXT14-P2 (dsDNA)
DNA 1: TGCATATGAATTAACATGCATATGAATTAACATGCATATGAATTAACATGCATATGAATTAACA
DNA 2: TGTTAATTCATATGCATGTTAATTCATATGCATGTTAATTCATATGCATGTTAATTCATATGCA
B2: RHS15-P2 (dsDNA)
DNA 1: GACAAATGAATTCGGAGACAAATGAATTCGGAGACAAATGAATTCGGAGACAAATGAATTCGGA
DNA 2: TCCGAATTCATTTGTCTCCGAATTCATTTGTCTCCGAATTCATTTGTCTCCGAATTCATTTGTC
B3: PRP1-P4 (dsDNA)
DNA 1: AACAGATGAACGACATAACAGATGAACGACATAACAGATGAACGACATAACAGATGAACGACAT
DNA 2: ATGTCGTTCATCTGTTATGTCGTTCATCTGTTATGTCGTTCATCTGTTATGTCGTTCATCTGTT
B4: RHS19-P1 (dsDNA)
DNA 1: TCTGCACGAATGTCACTCTGCACGAATGTCACTCTGCACGAATGTCACTCTGCACGAATGTCAC
DNA 2: GTGACATTCGTGCAGAGTGACATTCGTGCAGAGTGACATTCGTGCAGAGTGACATTCGTGCAGA

target: T1, GST-EIN3(141-352); experiment: EMSA; competed by 500x unlabelled probe; 25 mM HEPES-KOH pH 7.5, 100 mM KCl, 0.1 mM EDTA, 10% glycerol, 1 mM DTT, 1 ug poly(dI-dC), 0.1 ug protein in 20 uL, room temperature 30 min; 5.5% PAGE in 0.5x TBE; conditions: protein: recombinant; tags: GST (pGEX-6p-1); chain copies: 2; label: biotin; blunt

Binder	binding result
B1	binds
B2	binds
B3	binds
B4	binds
